Our source for the binding signal values is PMC11417369, “DNA sequence and chromatin differentiate sequence-specific transcription factor binding in the human malaria parasite Plasmodium falciparum”.

First the molecules themselves.
B1: GTGCAC_site10127 (dsDNA)
DNA 1: ACATATAAATATTGTGTGCACACACATAATATATAT
DNA 2: ATATATATTATGTGTGTGCACACAATATTTATATGT
B2: GTGCAC_site10407 (dsDNA)
DNA 1: CCTTTTTATCTTTTTGTGCACAGACCTTTTTTAAAT
DNA 2: ATTTAAAAAAGGTCTGTGCACAAAAAGATAAAAAGG
B3: GTGCAC_site10136 (dsDNA)
DNA 1: ATGATCTGTTTGTTTGTGCACATATATATATATTAA
DNA 2: TTAATATATATATATGTGCACAAACAAACAGATCAT
B4: GTGCAC_site10596 (dsDNA)
DNA 1: AAAATTTATAGTATGGTGCATAAAAATATATATATA
DNA 2: TATATATATATTTTTATGCACCATACTATAAATTTT
B5: GTGCAC_site9761 (dsDNA)
DNA 1: ACATAATATACTATTGTGCACATATATATATATATA
DNA 2: TATATATATATATATGTGCACAATAGTATATTATGT
B6: GTGCAC_site10777 (dsDNA)
DNA 1: ATAATATATACGTGTGTGCACATGACAAAAGCATAT
DNA 2: ATATGCTTTTGTCATGTGCACACACGTATATATTAT
B7: GTGCAC_site10327 (dsDNA)
DNA 1: AAATTATGCATCGAGGTGCGTCTTAAAATATAGTGG
DNA 2: CCACTATATTTTAAGACGCACCTCGATGCATAATTT
B8: GTGCAC_site9896 (dsDNA)
DNA 1: TCTTACGGATTCATTGTGCACATATATATATATATA
DNA 2: TATATATATATATATGTGCACAATGAATCCGTAAGA
B9: GTGCAC_site9405 (dsDNA)
DNA 1: TAAAAATAGGAGTGTGTGCACATAAATTATATACTA
DNA 2: TAGTATATAATTTATGTGCACACACTCCTATTTTTA
B10: GTGCAC_site9497 (dsDNA)
DNA 1: TAATTGAGCAAATGAGTGCACAGCATAAAGTATAGT
DNA 2: ACTATACTTTATGCTGTGCACTCATTTGCTCAATTA
B11: GTGCAC_site10602 (dsDNA)
DNA 1: GTTGTATACAATAATGTGCACATATTAATTTGAACT
DNA 2: AGTTCAAATTAATATGTGCACATTATTGTATACAAC
B12: GTGCAC_site9416 (dsDNA)
DNA 1: TTTCAAAAAAATAATGTGCACATTAGAAAATAAATA
DNA 2: TATTTATTTTCTAATGTGCACATTATTTTTTTGAAA
B13: GTGCAC_site10672 (dsDNA)
DNA 1: AATTTCAAATTGTATGTGCACATGTAGAAGTACTTT
DNA 2: AAAGTACTTCTACATGTGCACATACAATTTGAAATT
B14: GTGCAC_site9742 (dsDNA)
DNA 1: GAAAAATTTTTATATGTGCACATGTTATATATAATT
DNA 2: AATTATATATAACATGTGCACATATAAAAATTTTTC
B15: GTGCAC_site9637 (dsDNA)
DNA 1: GGAAAATATGTTTGTGTGCACAGCTAGCTATTTGTA
DNA 2: TACAAATAGCTAGCTGTGCACACAAACATATTTTCC
B16: GTGCAC_site9801 (dsDNA)
DNA 1: ATCATCTTTATTCAAGTGCACTGAAAATTTTTTATA
DNA 2: TATAAAAAATTTTCAGTGCACTTGAATAAAGATGAT
B17: GTGCAC_site10480 (dsDNA)
DNA 1: GGTATTTATGGACGCGTGCACACACATATGAACAAA
DNA 2: TTTGTTCATATGTGTGTGCACGCGTCCATAAATACC
B18: GTGCAC_site10701 (dsDNA)
DNA 1: TAATACATAAATAATGTGCACATGGAAATATATCTT
DNA 2: AAGATATATTTCCATGTGCACATTATTTATGTATTA
B19: GTGCAC_site9651 (dsDNA)
DNA 1: AATCGATAAAATGTTGTGCACATATTTTTATATTTA
DNA 2: TAAATATAAAAATATGTGCACAACATTTTATCGATT
B20: GTGCAC_site10605 (dsDNA)
DNA 1: GAAGTAGATGGAAAAGTGCACTGTAATGGTTATATT
DNA 2: AATATAACCATTACAGTGCACTTTTCCATCTACTTC
B21: GTGCAC_site10210 (dsDNA)
DNA 1: ATTGAATATGGATATGTGCACATATGTATATAAGTA
DNA 2: TACTTATATACATATGTGCACATATCCATATTCAAT
B22: GTGCAC_site10696 (dsDNA)
DNA 1: AATGACTACATAATAGTGCAATATTAAAGAAAATTA
DNA 2: TAATTTTCTTTAATATTGCACTATTATGTAGTCATT
B23: GTGCAC_site10009 (dsDNA)
DNA 1: AAATATAGAATACATGTGCACATAATATATATATAT
DNA 2: ATATATATATATTATGTGCACATGTATTCTATATTT
B24: GTGCAC_site10060 (dsDNA)
DNA 1: TCTTTTTCTTCTTATGTGCACATCAATTATGCTTCT
DNA 2: AGAAGCATAATTGATGTGCACATAAGAAGAAAAAGA
B25: GTGCAC_site10133 (dsDNA)
DNA 1: AATTTATATAATTTTGTGCACAATATTCATGTATAT
DNA 2: ATATACATGAATATTGTGCACAAAATTATATAAATT
B26: GTGCAC_site10550 (dsDNA)
DNA 1: TAAACGTTAGTATGTGTGCACATTAGTAATTTAAAA
DNA 2: TTTTAAATTACTAATGTGCACACATACTAACGTTTA
B27: GTGCAC_site9584 (dsDNA)
DNA 1: TGTAATAATATTTATGTGCACATATATTAAACTATA
DNA 2: TATAGTTTAATATATGTGCACATAAATATTATTACA
B28: GTGCAC_site10288 (dsDNA)
DNA 1: ATAGATCCTAATGTTGTGCACATGTAAATTAATATA
DNA 2: TATATTAATTTACATGTGCACAACATTAGGATCTAT
B29: GTGCAC_site10138 (dsDNA)
DNA 1: TATTTATAAATATGTGTGCACAATTTATTTTATAAT
DNA 2: ATTATAAAATAAATTGTGCACACATATTTATAAATA
B30: GTGCAC_site9621 (dsDNA)
DNA 1: TATATATATAAGATTGTGCACATTAAAATGATAGAA
DNA 2: TTCTATCATTTTAATGTGCACAATCTTATATATATA
B31: GTGCAC_site10106 (dsDNA)
DNA 1: ATATTTTATATATTTGTGCACAATATTATAATATAT
DNA 2: ATATATTATAATATTGTGCACAAATATATAAAATAT
B32: GTGCAC_site10422 (dsDNA)
DNA 1: ATCAATAAATAAAATGTGCACATAATATATTAATAC
DNA 2: GTATTAATATATTATGTGCACATTTTATTTATTGAT
B33: GTGCAC_site10725 (dsDNA)
DNA 1: TTTTGTTATTTTGAAGTGCACTTTCCACTTAATATA
DNA 2: TATATTAAGTGGAAAGTGCACTTCAAAATAACAAAA
B34: GTGCAC_site9799 (dsDNA)
DNA 1: TATTATAATATATTTGTGCACATAATATCTCCGCTA
DNA 2: TAGCGGAGATATTATGTGCACAAATATATTATAATA
B35: GTGCAC_site10307 (dsDNA)
DNA 1: AAATAATTAGAAATAGTGCACATAATTAAGGGATAC
DNA 2: GTATCCCTTAATTATGTGCACTATTTCTAATTATTT
B36: GTGCAC_site9990 (dsDNA)
DNA 1: TATATATATGTATATGTGCACAGTTTTCTTATTAAA
DNA 2: TTTAATAAGAAAACTGTGCACATATACATATATATA
B37: GTGCAC_site10419 (dsDNA)
DNA 1: TTTTCTTTTTTTTTTGTGCACATAATATATAATTAT
DNA 2: ATAATTATATATTATGTGCACAAAAAAAAAAGAAAA
B38: GTGCAC_site9581 (dsDNA)
DNA 1: TTATTACACACATATGTGCACATATAAAAGTACACG
DNA 2: CGTGTACTTTTATATGTGCACATATGTGTGTAATAA
B39: GTGCAC_site10194 (dsDNA)
DNA 1: AATTTTCCATAGATTGTGCACAAATTTTTATTTTGT
DNA 2: ACAAAATAAAAATTTGTGCACAATCTATGGAAAATT
B40: GTGCAC_site9859 (dsDNA)
DNA 1: TACATAAATATATGTGTGCACAATTTCGTATATTTA
DNA 2: TAAATATACGAAATTGTGCACACATATATTTATGTA
B41: GTGCAC_site10617 (dsDNA)
DNA 1: GAGGTCTTTTTTAATGTGCACATATATATATATATA
DNA 2: TATATATATATATATGTGCACATTAAAAAAGACCTC

In this data set the target is T1, HDP1 homeodomain-like (Plasmodium falciparum, UniProt Q8IKH4 2990-3078).
T1 sequence: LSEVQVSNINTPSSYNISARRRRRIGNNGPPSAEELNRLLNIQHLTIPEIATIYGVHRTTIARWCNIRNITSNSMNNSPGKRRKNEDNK
The data set is described as follows: gcPBM; about 25 ug protein; PBS, 1% milk, 0.2 mg/ml BSA, salmon testes DNA, 0.03% Triton X-100. The conditions noted are these: tags: N-terminal GST (pGEX-4T-1), kept; chain copies: 2; label: surface-attached array probe.
In the case of B1, the binding signal was 10.5 ln median PBM intensity, better of two orientations.

B2: the binding signal was 11.2 ln median PBM intensity, better of two orientations.

Consider B3, for which the binding signal was 11.3 ln median PBM intensity, better of two orientations.

As for B4, the binding signal is 10.6 ln median PBM intensity, better of two orientations.

For the molecule B5, the binding signal is 11.2 ln median PBM intensity, better of two orientations.

In the case of B6, the binding signal is 11.1 ln median PBM intensity, better of two orientations.

For the molecule B7, the binding signal is 11.2 ln median PBM intensity, better of two orientations.

With B8, the binding signal is 11.1 ln median PBM intensity, better of two orientations.

Regarding B9, the binding signal was 11.2 ln median PBM intensity, better of two orientations.

For B10, the binding signal is 10.7 ln median PBM intensity, better of two orientations.

On to B11, for which the binding signal is 11.2 ln median PBM intensity, better of two orientations.

Regarding B12, the binding signal was 10.5 ln median PBM intensity, better of two orientations.

In the case of B13, the binding signal was 11.1 ln median PBM intensity, better of two orientations.

Take B14: the binding signal is 11.2 ln median PBM intensity, better of two orientations.

For B15, the binding signal was 11 ln median PBM intensity, better of two orientations.

In the case of B16, the binding signal is 11.2 ln median PBM intensity, better of two orientations.

In the case of B17, the binding signal was 10.4 ln median PBM intensity, better of two orientations.

Consider B18, for which the binding signal is 11.2 ln median PBM intensity, better of two orientations.

For the molecule B19, the binding signal was 11.2 ln median PBM intensity, better of two orientations.

For the molecule B20, the binding signal was 10.6 ln median PBM intensity, better of two orientations.

On to B21, for which the binding signal was 11.1 ln median PBM intensity, better of two orientations.

For the molecule B22, the binding signal was 10.4 ln median PBM intensity, better of two orientations.

With B23, the binding signal is 11.3 ln median PBM intensity, better of two orientations.

For B24, the binding signal was 10.8 ln median PBM intensity, better of two orientations.

As for B25, the binding signal is 11.2 ln median PBM intensity, better of two orientations.

For the molecule B26, the binding signal was 10.6 ln median PBM intensity, better of two orientations.

For the molecule B27, the binding signal was 11.1 ln median PBM intensity, better of two orientations.

Consider B28, for which the binding signal is 11 ln median PBM intensity, better of two orientations.

Consider B29, for which the binding signal is 11 ln median PBM intensity, better of two orientations.

Turning to B30, the binding signal was 11.1 ln median PBM intensity, better of two orientations.

Consider B31, for which the binding signal was 10.8 ln median PBM intensity, better of two orientations.

Regarding B32, the binding signal is 11.1 ln median PBM intensity, better of two orientations.

For B33, the binding signal is 10.7 ln median PBM intensity, better of two orientations.

As for B34, the binding signal was 11.1 ln median PBM intensity, better of two orientations.

Regarding B35, the binding signal was 10.9 ln median PBM intensity, better of two orientations.

With B36, the binding signal was 11.1 ln median PBM intensity, better of two orientations.

For the molecule B37, the binding signal was 11.2 ln median PBM intensity, better of two orientations.

B38: the binding signal was 11.1 ln median PBM intensity, better of two orientations.

With B39, the binding signal was 11.3 ln median PBM intensity, better of two orientations.

As to B40, the binding signal was 11.1 ln median PBM intensity, better of two orientations.

Turning to B41, the binding signal is 11 ln median PBM intensity, better of two orientations.
